The source of these data is publication PMC3222648, “Inotropic Action of the Puberty Hormone Kisspeptin in Rat, Mouse and Human: Cardiovascular Distribution and Characteristics of the Kisspeptin Receptor” (PLoS ONE, 2011).

In general, EC50 refers to the midpoint of the concentration-response curve. A high value points to a less potent agent. Usually Emax stands for the size of the effect at its maximum, as opposed to the concentration needed. The term Kd denotes the concentration at which binding is half-saturated. Low values mean a tighter complex, high ones a looser complex.

Where “and” joins values, the source holds several entries; their conditions need not be identical. Identical values can stand only once. Bridges are numbered along the chain shown (N, C = ends). Where no end group is shown, it is not given here.

Assay [1] addresses T1, kisspeptin receptor (Homo sapiens, UniProt Q969F8).
T1 construct: cryostat-cut sections of human (15 µm) or rat (10 µm) heart; from tissue; host or cells: human right atria (control, dilated cardiomyopathy, ischaemic heart disease), cryostat sections
Kind of assay: Inotropic activity in human paced atrial strips. As to the method:
(§1) Paired rat or mouse atria, or 4 mm strips of human atrial appendage, were mounted in 10 ml organ baths containing oxygenated Krebs solution at 37°C as described previously. […] Experiments were terminated by the addition of 6.7 mM CaCl2 (final bath concentration 8.95 mM) and responses expressed as a % of this CaCl2 maximum. Radioligand binding study data were analyzed using the iterative, non-linear curve fitting programs EBDA and LIGAND in the KELL package (Biosoft, Cambridge, UK). Pooled KD, BMAX and Hill slopes (nH) were expressed as mean±SEM and normalized to protein concentrations. […] Where appropriate, values were compared by one-way analysis of variance (ANOVA). In all cases P<0.05 was considered statistically significant and n-values were the number of animals or patients from which data were obtained.

Assay [2] deals with T2, kisspeptin receptor (Rattus norvegicus, UniProt Q924U1). Description: Inotropic activity in rat paced paired atria. On the set-up: Paired rat or mouse atria; from tissue; host or cells: rat paired atria. Conditions: read-out: EMAX (maximum positive inotropic response). How it is done: as §1
Assay [3] deals with endothelium-denuded rat aortic rings. Kind of assay: Vasoconstrictor activity in endothelium-denuded rat aorta. Conditions: mean ± SEM, ET-1 n = 7, KP-10 tissues from 4 animals, KP-54 tissues from 3 animals. As to the method:
Rat thoracic aorta was cleaned of connective tissue and cut into 4 mm rings and the endothelial layer removed by gentle rubbing. Tissues were set to a basal tension at which the maximum response to 100 mM KCl was generated and subsequent responses to kisspeptins were expressed as % of this KCl response. Aortic rings were then contracted with 10 µM phenylephrine and 1 µM ACh was added; a reduction in the phenylephrine response of <10% was taken as evidence of removal of endothelium. […] Experiments were terminated by the addition of 100 mM KCl and agonist responses were expressed as a % of this KCl maximum.
Radioligand binding study data were analyzed using the iterative, non-linear curve fitting programs EBDA and LIGAND in the KELL package (Biosoft, Cambridge, UK). Pooled KD, BMAX and Hill slopes (nH) were expressed as mean±SEM and normalized to protein concentrations. In vitro pharmacology data agonist responses were expressed as %CaCl2 response in the paced atrial tissues and %KCl in the vasoconstrictor studies and data were fitted to a four parameter logistic equation using an iterative curve-fitting program (FigSys, Biosoft, Cambridge, UK) to obtain values for potency (pD2: the negative logarithm to the base 10 of the EC50) and maximum response (EMAX: %CaCl2 or %KCl, respectively) expressed as mean±SEM. Where appropriate, values were compared by one-way analysis of variance (ANOVA). In all cases P<0.05 was considered statistically significant and n-values were the number of animals or patients from which data were obtained.

For assay [4], the system named is kisspeptin receptor. Conditions: ref [3]; cited from earlier work. From the text:
Kisspeptin, or KP-54, is a member of a larger group of peptides, the RF amides, named after their shared C-terminal amino acids. RF amides have wide ranging roles in reproduction, feeding, blood pressure regulation and pain modulation with kisspeptins most closely implicated in reproduction and energy balance, [23]–[27]. KP-54 is cleaved from a single precursor, encoded by the KISS1 gene, and smaller fragments of kisspeptin have been identified that are cleaved from KP-54 by unidentified proteases.

Assay [5] addresses T2, kisspeptin receptor. Kind of assay: [^125I]KP-14 receptor autoradiography, rat cardiovascular tissue sections. The assay is classed as binding. Conditions: for [^125I]KP-14 specific binding: 0.2 nM [^125I]KP-14, 2 h, pH 7.4, non-specific: 1 µM KP-10, mean ± SEM. As to the method: (§2) For receptor autoradiography, cryostat-cut sections of human (15 µm) or rat (10 µm) heart were pre-incubated with phosphate binding buffer (mM: NaH2PO4, 50; NaCl, 100; EDTA, 5; MgCl2, 5; protease inhibitor cocktail, 1; pH 7.4) before incubation for 2 h with 0.2 nM [^125I]KP-14 [31]. […] Equilibrium was broken by washing in 50 mM Tris-HCl buffer, pH 7.4, 4°C before air-drying and apposition to radiation-sensitive film (Kodak Biomax MR) and determination of specific binding by computer-assisted densitometry using the Quantimet 970 system (Leica Microsystems, Bucks, UK).

Assay [6] addresses T2, kisspeptin receptor. Description: [^125I]KP-14 saturation binding, rat heart sections. How it is done:
(§3) [^125I]KP-14 binding was detected using a gamma counter to measure disintegrations per minute (dpm) and total protein content was calculated using the Biorad 96-well microtiter plate system. Radioligand binding study data were analyzed using the iterative, non-linear curve fitting programs EBDA and LIGAND in the KELL package (Biosoft, Cambridge, UK). Pooled KD, BMAX and Hill slopes (nH) were expressed as mean±SEM and normalized to protein concentrations. […] Where appropriate, values were compared by one-way analysis of variance (ANOVA). In all cases P<0.05 was considered statistically significant and n-values were the number of animals or patients from which data were obtained.

For assay [7], the target named is T1, kisspeptin receptor. Description: [^125I]KP-14 receptor autoradiography, human cardiovascular tissue sections. Type of assay: binding. As to conditions: for [^125I]KP-14 specific binding: 0.2 nM [^125I]KP-14, 2 h, mean ± SEM. As to the method:
as §2

Assay [8] concerns the target T1, kisspeptin receptor. Kind of assay: [^125I]KP-14 saturation binding, human right atria sections. As to conditions: for BMAX (receptor density) / nH (Hill coefficient): mean ± SEM, n = 3. How it is done:
as §3

For assay [9] the following is noted: ref [43]; cited from earlier work. From the text: Our discovery that kisspeptins are positive inotropic agents in human and rodent heart is the first report of such activity. […] Activation of these signaling pathways would be consistent with function as both an inotropic a ...
The test system of the next assay is human heart. As to conditions: ref [39]; cited from earlier work. From the text:
The RF-amide peptide family, which also includes prolactin releasing peptide, are known to have roles in cardiovascular regulation, both centrally and peripherally, [35]. However, to date mRNA studies of kisspeptin receptor distribution in whole heart samples have reported low but varying mRNA expression by northern blot, expression was not detected by PCR [3], [4], [32] except by Sawyer and colleagues, who were also able to detect mRNA encoding murine kisspeptin, albeit at very low copy number. We now report for the first time, the expression of kisspeptin a ...

In another assay the target is T3, KP-14 (Homo sapiens, UniProt Q15726, ends and bridges not checked; also: 125I-labelled).
T3 chain: DLPNYNWNSFGLRF
Description: saturation radioligand binding, heart sections.

The mark [10] stands for this setting: human right atria, dilated cardiomyopathy (DCM).
Setting [11] is: human right atria, ischaemic heart disease (IHD).

T1 sequence (Q969F8 whole entry): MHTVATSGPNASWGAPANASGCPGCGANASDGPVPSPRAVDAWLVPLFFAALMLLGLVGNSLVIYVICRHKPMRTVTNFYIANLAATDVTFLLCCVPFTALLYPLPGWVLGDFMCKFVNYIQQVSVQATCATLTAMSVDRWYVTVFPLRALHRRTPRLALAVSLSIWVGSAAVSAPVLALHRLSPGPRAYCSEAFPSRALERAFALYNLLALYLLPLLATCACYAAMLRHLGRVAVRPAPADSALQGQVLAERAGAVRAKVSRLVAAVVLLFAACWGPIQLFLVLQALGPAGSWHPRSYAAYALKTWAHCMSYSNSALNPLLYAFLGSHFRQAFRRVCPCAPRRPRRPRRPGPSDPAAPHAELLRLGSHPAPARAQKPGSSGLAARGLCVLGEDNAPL

On kisspeptin receptor [1], `CC(C)C[C@H](NC(=O)CNC(=O)[C@H](Cc1ccccc1)NC(=O)[C@H](CO)NC(=O)[C@H](CC(N)=O)NC(=O)[C@H](Cc1c[nH]c2ccccc12)NC(=O)[C@H](CC(N)=O)NC(=O)[C@@H](N)Cc1ccc(O)cc1)C(=O)N[C@@H](CCCNC(=N)N)C(=O)N[C@@H](Cc1ccccc1)C(N)=O` [KP-10] had an EC50 of 0.102 nM. Also, the maximal effect (Emax) at kisspeptin receptor [1] (% of CaCl2 maximum (8.95 mM final), human atrial strips, mean ± SEM, n = 5, read-out: EMAX (maximum positive inotropic response)) was determined as 59 ± 10%; at kisspeptin receptor [2], 31 ± 5%.

Consider “ET-1: ET-1 (human) from Peptide Institute, control vasoconstrictor (CSCSSLMDKECVYFCHLDIIW; disulfide 1-15, 3-11; ends not checked; UniProt P05305 53-73, looked up)”, for which the “EMAX (maximum vasoconstrictor response)” value in assay [3] (% of 100 mM KCl maximum, endothelium-denuded rat aorta) was found to be 99±1 % KCl. The “pD2 (vasoconstriction)” value in assay [3] (endothelium-denuded rat thoracic aortic rings, KP-10, KP-54 10^−12–3×10^−9 M, ET-1 10^−10–3×10^−7 M) is listed as 8.13±0.11.

Consider “KP-13: smaller fragment of kisspeptin cleaved from KP-54 (LPNYNWNSFGLRF; ends and bridges not checked; UniProt Q15726 109-121, looked up)”, for which the “biological activity of fragment” value in the assay on kisspeptin receptor [4] is “retain biological activity”.

Take “KP-14: smaller fragment of kisspeptin cleaved from KP-54; custom synthesised by Severn Biotech (DLPNYNWNSFGLRF-NH2; ends and bridges not checked; UniProt Q15726 108-121, looked up)”: in the assay with kisspeptin receptor [4], the “biological activity of fragment” value was “retain biological activity”.

For “[^125I]KP-14: radioligand (2000 Ci/mmol) prepared from unlabelled KP-14 by direct iodination using the chloramine-T method (DLPNYNWNSFGLRF; not fully specified; ends and bridges not checked; also: 125I radiolabel, site not given here; UniProt Q15726 108-121, looked up)”, the “[^125I]KP-14 specific binding” value with kisspeptin receptor [5] (rat aorta, n = 3) came out at 21±2 amol mm^−2; in the assay with kisspeptin receptor [5] (rat heart, n = 5), 29±10 amol mm^−2; with kisspeptin receptor [7] (human aorta, pH 7.4, n = 6), 214±46 amol mm^−2; in the assay with kisspeptin receptor [7] (human apex, pH 7.4, n = 4), 27±6 amol mm^−2; with kisspeptin receptor [7] (human atrial appendage, pH 7.4, n = 4) it was 51±15 amol mm^−2; in the assay with kisspeptin receptor [7] (human interventricular septum, pH 7.4, n = 3), 29±10 amol mm^−2. The “[^125I]KP-14 specific binding” value with kisspeptin receptor [7] (human left atria, phosphate binding buffer pH 7.4, non-specific: 10 µM KP-14, n = 3) was 59±16 amol mm^−2; with kisspeptin receptor [7] (human left ventricle, pH 7.4, n = 3), 34±8 amol mm^−2; with kisspeptin receptor [7] (human right atria, pH 7.4, n = 3), 36±7 amol mm^−2; in the assay with kisspeptin receptor [7] (human right ventricle, pH 7.4, n = 3), 31±7 amol mm^−2; with kisspeptin receptor [7] (human small resistance vessel, pH 7.4, n = 5) it was 4±3 amol mm^−2. For the same molecule, the “specific binding of [^125I]KP-14 (in words)” value with kisspeptin receptor [5] (rat myocardium, rat aorta smooth muscle) was “observed in all regions of human and rat myocardium”; with kisspeptin receptor [7] (human myocardium, all regions, smooth muscle of human aorta and small coronary resistance vessels) it was “observed in all regions of human and rat myocardium”. The “Hill slopes (in words)” value in the assay with kisspeptin receptor [6] and in the assay with kisspeptin receptor [8] (human right atria) was “close to unity” in each case. Besides, in the assay with kisspeptin receptor [6] (mean ± SEM, n = 6), the BMAX was 11 ± 2 fmol/mg. The “BMAX (receptor density)” value with kisspeptin receptor [8] (control human right atria) is 8±5 fmol mg^−1 protein and 8.0±4.8 fmol mg^−1 protein; with kisspeptin receptor [8] (setting [10]), 10.2±3.4 fmol mg^−1 protein; in the assay with kisspeptin receptor [8] (setting [11]), 13.5±7.0 fmol mg^−1 protein. Moreover, the “nH (Hill coefficient)” value is 0.82±0.10 with kisspeptin receptor [8] (control human right atria), 1.00±0.02 with kisspeptin receptor [8] (setting [10]) and 0.94±0.03 with kisspeptin receptor [8] (setting [11]). Moreover, the “difference in receptor density or binding affinity” value in the assay with kisspeptin receptor [8] (human right atria, control vs DCM vs IHD) was “No significant difference in receptor density or binding affinity”.

In the case of endothelin, the “pD2 (inotropic effect)” value in assay [9] is 8.9.

Turning to “urotensin-II: vasoactive peptide and potent inotrope in human heart (ETPDCFWKYCV; ends and bridges not checked; cysteine pairing not given here; UniProt O95399 114-124, looked up)”, the “inotropic activity (in words)” value with human heart is “potent inotrope in human heart”.

B1: Kisspeptin receptor (protein)
chain: MAAEATLGPNVSWWAPSNASGCPGCGVNASDGPGSAPRPLDAWLVPLFFAALMLLGLVGNSLVIFVICRHKHMQTVTNFYIANLAATDVTFLLCCVPFTALLYPLPTWVLGDFMCKFVNYIQQVSVQATCATLTAMSVDRWYVTVFPLRALHRRTPRLALTVSLSIWVGSAAVSAPVLALHRLSPGPHTYCSEAFPSRALERAFALYNLLALYLLPLLATCACYGAMLRHLGRAAVRPAPTDGALQGQLLAQRAGAVRTKVSRLVAAVVLLFAACWGPIQLFLVLQALGPSGAWHPRSYAAYALKIWAHCMSYSNSALNPLLYAFLGSHFRQAFCRVCPCGPQRQRRPHASAHSDRAAPHSVPHSRAAHPVRVRTPEPGNPVRRSPSVQDEHTAPL
For B1, the Kd with KP-14 was found to be 0.44 nM.
